The target of this assay is human TSH receptor on stably transfected CHO cells (JP09 cells) (human) (UniProt P16473). The experiment in a line: cell-based or functional assay.
Sequence of UniProt P16473 (P16473 21-764): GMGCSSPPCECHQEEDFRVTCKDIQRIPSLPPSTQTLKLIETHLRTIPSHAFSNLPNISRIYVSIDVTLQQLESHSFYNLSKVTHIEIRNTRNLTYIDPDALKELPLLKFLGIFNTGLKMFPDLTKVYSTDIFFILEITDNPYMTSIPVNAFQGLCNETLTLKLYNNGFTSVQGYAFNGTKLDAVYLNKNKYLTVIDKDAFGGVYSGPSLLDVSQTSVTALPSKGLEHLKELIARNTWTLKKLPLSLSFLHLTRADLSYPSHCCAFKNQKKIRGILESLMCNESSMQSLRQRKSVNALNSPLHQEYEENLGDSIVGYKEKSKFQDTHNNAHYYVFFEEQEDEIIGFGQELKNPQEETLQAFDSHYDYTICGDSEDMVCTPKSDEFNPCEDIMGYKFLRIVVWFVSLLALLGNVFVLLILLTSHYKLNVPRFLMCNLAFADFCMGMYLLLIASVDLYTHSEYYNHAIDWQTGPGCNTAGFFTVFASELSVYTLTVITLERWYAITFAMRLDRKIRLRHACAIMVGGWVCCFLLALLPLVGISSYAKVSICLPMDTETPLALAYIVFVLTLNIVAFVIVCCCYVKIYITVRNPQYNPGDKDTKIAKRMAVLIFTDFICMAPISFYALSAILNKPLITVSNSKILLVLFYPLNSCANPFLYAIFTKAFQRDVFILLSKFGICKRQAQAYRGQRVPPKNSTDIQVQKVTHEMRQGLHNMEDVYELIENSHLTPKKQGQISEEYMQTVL

In the case of “feline thyrotropin (fTSH) α/β heterodimer (from UniProt Q52R91 25-120; Q52R90 21-132) (ligand)”, the cAMP production (cAMP released into medium, RIA) by JP09 cells turned out to be 25 pmol/mL.

In the case of “feline thyrotropin yoked polypeptide (β-subunit-CTP-α-subunit) (ligand)”, the cAMP production (cAMP released into medium, RIA) by JP09 cells turned out to be 70 pmol/mL.
